The values that follow come from the supplement of paper PMC9170038.

For data set [1], the system named is MS2 coat protein. In words: apparent KD of MS2 coat protein, switch ON state; designed switch direction (-1 OFF switch, 1 ON switch): -1; higher = weaker reporter binding. The following applies: FMN input: 0 or 200 uM; Eterna round: R93 (includes R88 designs). The essentials:
(§1)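 Titrations with SNAP-549-labelled MS2 coat protein ran in twofold steps from 0.7 or 1.5 nM to 3 µM, each step taking 0.8–1.5 h at the start and 10–20 min toward the end. The targets were designed RNA switches transcribed on-chip from Illumina sequencing clusters, held in 100 mM Tris-HCl pH 7.5, 80 mM KCl, 4 mM MgCl2, without or with constant ligand. Apparent KD was taken per design as the median of normalised cluster binding-curve fits.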

The subject of data set [2] is MS2 coat protein. Description: apparent KD of MS2 coat protein, switch OFF state (with FMN for OFF switches, without FMN for ON switches); designed switch direction (-1 OFF switch, 1 ON switch): -1; higher = weaker reporter binding. The following applies: FMN input: 0 or 200 uM; Eterna round: R93 (includes R88 designs). The gist of the method:
as §1

For data set [3], the system named is MS2 coat protein. In words: apparent KD of MS2 coat protein; designed switch direction (-1 OFF switch, 1 ON switch): 1; higher = weaker reporter binding. The gist of the method:
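Designed RNA switches were transcribed on Illumina chips by stalled E. coli RNA polymerase and titrated with SNAP-549-labelled MS2 coat protein from 0.7 or 1.5 nM, doubling to 3 µM. Step length ran from 0.8–1.5 h at the lowest concentration to 10–20 min at the highest. The apparent KD is the median over clusters for each design, from curve-fitted normalised cluster fluorescence.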

Where [4] appears, read: input ligand: microRNA oligo, concentration not stated.
The mark [5] stands for this setting: Eterna round: R95, input ligand: FMN 200 uM.
Where [6] appears, read: Eterna round: R95, input ligand: microRNA oligo, concentration not stated.
Setting [7] is: Eterna round: R95, input ligand: none.

In the case of “AAAAAACAUGAGGAUCACCCAUGUAAGGAUAUCGGAAAAGGAAAAAUAAAAAAGAAGACGAGAAGGUACACCAA [Mat - Exclusion 1 - Eli mod - D78]”, the “apparent KD of MS2 coat protein” value in data set [1] was determined as 25.8 nM; in data set [2] it was 24 nM.

In the case of “AAAAAACAUGAGGAUCACCCAUGUAAGGAUAUCGUGCAGAAAAAAAAAAAAAACUGCACGAGAAGGUACUUGGA [Brourd - Exclusion 1 - Sub 3]”, the results for the “apparent KD of MS2 coat protein” value in data set [1] and in data set [2] were 43.1 nM and 87.9 nM, respectively.

Turning to “AAAAAACAUGAGGAUCACCCAUGUAAGGAUAUGCAAAACCCAUAUAAAAAGGGAAAAAGCAGAAGGUACAAAAA [Starry Exclusion 1.1 (wbt round 1 mod)]”, the “apparent KD of MS2 coat protein” value in data set [1] is 24.9 nM; in data set [2], 33.1 nM.

Regarding “UUAUCUAUCCGAGGAUAUCCAUAUAAUUUACAUGAGGAUCACCCAUGUUAUUGGGAGUUUUUUUAGGAGAAGGCGGAUGUAGAU [JR_SSNG2_Sub052] (Eterna round: R96, puzzle: Same State NG 2)”, the figures for the “apparent KD of MS2 coat protein” value in data set [3] (input ligand: FMN 200 uM), in data set [3] (setting [4]) and in data set [3] (input ligand: none) were 82.5 nM, 79.2 nM and 107 nM, respectively.

Consider “UUCCCAUCGGGAGGAUAUGGAACCUUAUUGGUUCUAGAAGGUCCAACAUGAGGAUCACCCAUGUGGGAGUGGUCUAAUGACCAC [SS NG10LRO02] (Eterna round: R96, puzzle: Same State NG 1)”, for which the “apparent KD of MS2 coat protein” value in data set [3] (input ligand: FMN 200 uM) is 117 nM; in data set [3] (setting [4]), 141 nM; in data set [3] (input ligand: none), 159 nM.

Take “UUCGAGUAGCAAGGAUAUCUUAUUUAGAUUUUAAGAGAAGGUGCUUAUUAGAAACAUGAGGAUCACCCAUGUAUUACUUCUUAU [JR_SSNG1_Sub066] (Eterna round: R96, puzzle: Same State NG 1)”: the “apparent KD of MS2 coat protein” value is 14.1 nM in data set [3] (input ligand: FMN 200 uM), 13.8 nM in data set [3] (setting [4]) and 20.1 nM in data set [3] (input ligand: none).

“UUCUUACAUGAGGAUCACCCAUGUGUUGUCGUGGGAGGAUAUCCUGGUUCGGUGGCGUUGGGAGAAGGCCUAUGUU [× ×•×ª×• ×ž×“×™× ×” × ×—×ª-19] (puzzle: Same State 1)”: the “apparent KD of MS2 coat protein” value was found to be 476 nM in data set [3] (setting [5]), 134 nM in data set [3] (setting [6]) and 376 nM in data set [3] (setting [7]).

With “UUGAAGAAUUAAGGAUAUCGAGUCGUCAAAUUAAACAUGAGGAUCACCCAUGUGGGUUGCGGUAUCGAGAAGGUAAAUUACUAG [JL JR Sub099 mod 4] (Eterna round: R96, puzzle: Same State NG 2)”, the “apparent KD of MS2 coat protein” value in data set [3] (input ligand: FMN 200 uM) worked out at 11.9 nM; in data set [3] (setting [4]) it was 15.2 nM; in data set [3] (input ligand: none), 32.3 nM.

In the case of “UUGAUGAACUGAGGAUAUCGAGUCGUCUCAUUACACAUGAGGAUCACCCAUGUGGGUUGUGGUAUCGAGAAGGCAGAAUACUCA [JR_SSNG2_Sub033] (Eterna round: R96, puzzle: Same State NG 2)”, the “apparent KD of MS2 coat protein” value came out at 25.1 nM in data set [3] (input ligand: FMN 200 uM), 28.7 nM in data set [3] (setting [4]) and 32.8 nM in data set [3] (input ligand: none).

As for “UUGAUGAACUGAGGAUAUCGAGUCGUCUGAUUAUACAUGAGGAUCACCCAUGUGGGUUGUGGUAUCGAGAAGGCAGAUUACUUA [JR_SSNG2_Sub032] (Eterna round: R96, puzzle: Same State NG 2)”, the “apparent KD of MS2 coat protein” value in data set [3] (input ligand: FMN 200 uM) amounted to 82.8 nM; in data set [3] (setting [4]) it was 117 nM; in data set [3] (input ligand: none), 260 nM.

For the sequence “UUGAUGUACUGAGGAUAUCGUGUCGUCUGAUUUGACAUGAGGAUCACCCAUGUGGGAAGUGGUAUCGAGAAGGCAGUUUUCUUA [JR_SSNG2_Sub028] (Eterna round: R96, puzzle: Same State NG 2)”, the “apparent KD of MS2 coat protein” value was determined as 151 nM in data set [3] (input ligand: FMN 200 uM), 351 nM in data set [3] (setting [4]) and 745 nM in data set [3] (input ligand: none).

For the sequence “UUGCGCUGUCGAGAGGAUAUGCGGUGAUGGACAUGAGGAUCACCCAUGUUAGCGAUAGCAUUACGGUAGAAGGCUCUUCAGCUGC [salish99_ss2_r3_095] (puzzle: Same State 2)”, the entries for the “apparent KD of MS2 coat protein” value in data set [3] (setting [5]), in data set [3] (setting [6]) and in data set [3] (setting [7]) were 16.2 nM, 21.8 nM and 26.2 nM, respectively.

Take “UUGCGGGCUUGAGGAUAUUGAGUACAUAUGUUUAACAUGAGGAUCACCCAUGUGGGUUGCGGUAUCGAGAAGGUAACUUCCUGC [salish99_SSNG2_r04_811] (Eterna round: R96, puzzle: Same State NG 2)”: the “apparent KD of MS2 coat protein” value is 100 nM in data set [3] (input ligand: FMN 200 uM), 65.3 nM in data set [3] (setting [4]) and 91.1 nM in data set [3] (input ligand: none).

For the sequence “UUGCUCGUGUAAGGAUAUGCAGCCGUUUCGGCUGCAGAAGGUACUAUAAUACAUGAGGAUCACCCAUGUCUCUAUUAUUUAGUG [salish99_SSNG1_r04_925] (Eterna round: R96, puzzle: Same State NG 1)”, the “apparent KD of MS2 coat protein” value in data set [3] (input ligand: FMN 200 uM) amounted to 43 nM; in data set [3] (setting [4]) it was 38.3 nM; in data set [3] (input ligand: none), 49.4 nM.

In the case of “UUGCUCGUGUGAGGAUAUGCCGCCGUUUCGGCUGCAGAAGGUACUCUGUUACAUGAGGAUCACCCAUGUCUCUGUUGUUUCGUG [salish99_SSNG1_r04_939] (Eterna round: R96, puzzle: Same State NG 1)”, the “apparent KD of MS2 coat protein” value in data set [3] (setting [4]) was determined as 34.7 nM.

Take “UUGGUGUAGAUACAGGAUAUGUUGCUUGUAACAUGAGGAUCACCCAUGUAUCUAUGAGAUUAAAUGCAGAAGGGUGCACAUCACU [salish99_ss2_r3_089] (puzzle: Same State 2)”: the “apparent KD of MS2 coat protein” value in data set [3] (setting [5]) was 390 nM; in data set [3] (setting [6]), 582 nM; in data set [3] (setting [7]), 1020 nM.

Take “UUGUUUUGAAAUUAACAUGAGGAUCACCCAUGUCUUGACACAGAGGAUAUACAUGUUUGUUUGUAGUAGAAGGCUGUUUAUUGU [JR_SSNG3_Sub097] (Eterna round: R96, puzzle: Same State NG 3)”: the “apparent KD of MS2 coat protein” value in data set [3] (input ligand: FMN 200 uM) was found to be 57 nM; in data set [3] (setting [4]) it was 98 nM; in data set [3] (input ligand: none), 135 nM.

In the case of “UUUAGAUUCAGAGGAUAUUGAUGUUGUAUUUUACAAGAAGGCUGAUUGGUUUGAAUUGUUUUUUAACAUGAGGAUCACCCAUGU [JR_SSNG1_Sub011] (Eterna round: R96, puzzle: Same State NG 1)”, the “apparent KD of MS2 coat protein” value in data set [3] (setting [4]) was 19.2 nM.

As for “UUUAGUAGCGGGCAGGAUAUGUAUUAAAAUACAUGAGGAUCACCCAUGUGCGGGUAUAACACCCGACAGAAGGGCCAAUCGCUAC [Laonerce - 8] (puzzle: Same State 2)”, the “apparent KD of MS2 coat protein” value in data set [3] (setting [5]) came to 22.3 nM; in data set [3] (setting [6]), 162 nM; in data set [3] (setting [7]), 237 nM.

Take “UUUAGUGGCGGGCAGGAUAUGUAUUAAAAUACAUGAGGAUCACCCAUGUGCGGGUAUAACACCCGACAGAAGGGCCAAUCGCUAC [Laonerce - 7] (puzzle: Same State 2)”: the “apparent KD of MS2 coat protein” value in data set [3] (setting [5]) was found to be 20.9 nM; in data set [3] (setting [6]) it was 275 nM; in data set [3] (setting [7]), 397 nM.

“UUUAGUUGCGGGCAGGAUAUGUAUUAAAAUACAUGAGGAUCACCCAUGUACGGGUAUAACACCCGACAGAAGGGCCAAUCGCGAC [Laonerce - 4] (puzzle: Same State 2)”: the entries for the “apparent KD of MS2 coat protein” value in data set [3] (setting [5]), in data set [3] (setting [6]) and in data set [3] (setting [7]) were 16.8 nM, 62.6 nM and 91.5 nM, respectively.

Take “UUUAUACAUGAGGAUCACCCAUGUCAAUGUAGUCGAGGAUAUGGGCAGCUGUGAGGCGUACUAGAAGGCGAAGAGG [JL-ss1-3.09 ViennaUCT mod] (puzzle: Same State 1)”: the results for the “apparent KD of MS2 coat protein” value in data set [3] (setting [5]), in data set [3] (setting [6]) and in data set [3] (setting [7]) were 103 nM, 378 nM and 579 nM, respectively.

Turning to “UUUAUAUUCAGAGGAUAUUGAUGUUGUAUUUUACAAGAAGGCUGAUUGUUUUGUAAUGUUAUUAUACAUGAGGAUCACCCAUGU [JR_SSNG1_Sub014] (Eterna round: R96, puzzle: Same State NG 1)”, the “apparent KD of MS2 coat protein” value in data set [3] (setting [4]) is 17.3 nM.

For the sequence “UUUCGAUAGAUAGGAUAUCACCUUACAUGAGGAUCACCCAUGUUGGCCGUGCUGGUUAUUCAUACUGAGAAGGAUCUUGAUGAC [JR_SSNG2_Sub004] (Eterna round: R96, puzzle: Same State NG 2)”, the “apparent KD of MS2 coat protein” value in data set [3] (input ligand: FMN 200 uM) came out at 39.4 nM; in data set [3] (setting [4]) it was 37 nM; in data set [3] (input ligand: none), 45 nM.

In the case of “UUUCUUCUCGUAGGAUAUGUAGGAUAUGCCUACAUGAGGAUCACCCAUGUUCGCAUGGCAGAAGGACAGAAGGACGAUCACCCU [pwkr ssNG2 2FMN + 1F5.9] (Eterna round: R96, puzzle: Same State NG 2)”, the “apparent KD of MS2 coat protein” value came out at 55.4 nM in data set [3] (input ligand: FMN 200 uM), 234 nM in data set [3] (setting [4]) and 502 nM in data set [3] (input ligand: none).

“UUUGAAUUGCAAGGAUAUCUUAUUUAGAUUUUAAGAGAAGGUGCUUUAUAGUUACAUGAGGAUCACCCAUGUAUUUCUUUUUAU [JR_SSNG1_Sub062] (Eterna round: R96, puzzle: Same State NG 1)”: the “apparent KD of MS2 coat protein” value in data set [3] (setting [4]) stood at 18.5 nM.

As for “UUUGAAUUGCAAGGAUAUUGAUAACAUGAGGAUCACCCAUGUAAUUGUUCGAGUUAGAUUAGUUACAAGAAGGUGCUAUUGUUU [JR_SSNG2_Sub039] (Eterna round: R96, puzzle: Same State NG 2)”, the “apparent KD of MS2 coat protein” value in data set [3] (input ligand: FMN 200 uM) worked out at 385 nM; in data set [3] (setting [4]) it was 165 nM; in data set [3] (input ligand: none), 287 nM.
